Reference: US7026443
Where two headings read alike, the source gives them in different places.

Key:
HLA-A*1101 (human) [1] = experiment: competition with 125I-radiolabeled standard probe peptide for purified HLA-A*1101, gel filtration
HLA-A*0301 (human) [2] = experiment: competition against a 125I-labeled standard probe peptide for purified HLA-A*0301, gel filtration; relative binding
HLA-A*0301 (human) [3] = target: HLA-A*0301 (human)
HLA-A*1101 (human) [4] = target: HLA-A*1101 (human)
HLA-A*0301 (human) [5] = target: HLA-A*0301 (human); remark: listed apart in the source
[6] = target: HLA-A*0201 (purified HLA class I molecule) (human); experiment: competition with 125I-labeled standard peptide for purified HLA-A*0201, gel filtration; ratio to the standard peptide
HLA-A*0101 (human) [7] = experiment: competition with 125I-labelled standard peptide for purified HLA-A*0101, bound and free separated by gel filtration
HLA-A*1101 (human) [8] = experiment: competition against a 125I-labelled standard probe peptide for purified HLA-A*1101, bound and free separated by gel filtration; value relative to the standard peptide
HLA-A*1101 (human) [9] = experiment: competition with a 125I-labeled standard probe peptide for purified HLA-A*1101, gel filtration
HLA-A*0101 (human) [10] = target: HLA-A*0101 (human)
HLA-A*1101 (human) [11] = experiment: inhibition of binding of a 125I-labelled standard peptide to purified HLA-A*1101, with gel filtration separation
HLA-A*1101 (human) [12] = experiment: competition binding assay; purified HLA-A*1101, unlabeled peptide against 125I-labeled probe peptide, gel filtration
HLA-A*1101 (human) [13] = experiment: competition with 125I-labelled standard probe peptide for purified HLA-A*1101, gel filtration
HLA-A*0301 (human) [14] = experiment: competition of unlabeled peptide against 125I-labeled standard probe peptide for purified HLA-A*0301, gel filtration
HLA-A*1101 (human) [15] = experiment: competition of unlabeled peptide with 125I-labeled standard probe peptide for purified HLA-A*1101, gel filtration
HLA-A*0301 (human) [16] = experiment: competition with 125I-labeled standard probe peptide for purified HLA, gel filtration
HLA-A*1101 (human) [17] = experiment: as above
[18] = target: HLA-A*0201 (purified HLA class I molecule) (human); experiment: competition assay: unlabeled peptide inhibits binding of a 125I-labeled standard probe peptide to purified HLA-A*0201, gel filtration read-out
HLA-A*0301 (human) [19] = experiment: competition of unlabeled peptide with 125I-labeled standard probe peptide for purified HLA-A*0301, gel filtration
HLA-A*0201 (human) [20] = experiment: competition with a 125I-labelled probe peptide for purified HLA-A*0201, gel filtration
[21] = target: purified HLA-A*0201 molecules (human)
HLA-B*0702 (human) = experiment: competition with 125I-labelled standard peptide for purified HLA, gel filtration; relative binding
HLA-B*3501 (human) = experiment: as above
HLA-B*5101 (human) = experiment: as above
HLA-B*5301 (human) = experiment: as above
HLA-A*0301 (human) [22] = experiment: competition with a 125I-labelled standard peptide for purified HLA-A*0301, gel filtration; value relative to the standard peptide
HLA-A*0201 (human) [23] = experiment: competition with a 125I-labeled standard peptide for purified HLA-A*0201, gel filtration; ratio to the standard peptide
HLA-A*0301 (human) [24] = experiment: competition with 125I-labelled probe peptide for purified HLA, gel filtration; conditions: scale: ratio
HLA-A*1101 (human) [25] = experiment: as above; conditions: scale: ratio
HLA-A*0301 (human) [26] = experiment: competition with 125I-labeled standard peptide for purified HLA-A*0301, gel filtration
HLA-A*1101 (human) [27] = experiment: competition with 125I-labeled standard peptide for purified HLA-A*1101, gel filtration; conditions: scale: ratio
[28] = target: purified HLA-A*0201 molecules (human); experiment: competition with 125I-labelled standard probe peptide for purified HLA-A*0201; bound and free peptide separated by gel filtration

WTYFDTYMR (modifications not checked) [HPV18 E1 peptide … (position 536, 9 amino acids)] gave a relative binding ratio (IC50 of standard peptide / IC50 of test peptide) (HLA-A*1101 (human) [1]) of 0.012 and a binding affinity ratio (IC50 of the standard peptide / IC50 of the test peptide) (HLA-A*0301 (human) [2]) of 0.0005.

CATMCRHYK (modifications not checked) [HPV16 E1 peptide … (position 405, 9 amino acids)] was tested, and the binding affinity ratio (IC50 of standard peptide / IC50 of test peptide) (HLA-A*0301 (human) [3]) was 0.0012, the binding affinity ratio (IC50 of standard peptide / IC50 of test peptide) (HLA-A*1101 (human) [4]) was 0.0098 and the binding affinity ratio (IC50 of standard peptide / IC50 of test peptide) (HLA-A*3101 (human)) was 0.0077. It also gave a binding affinity ratio (IC50 of standard peptide / IC50 of test peptide) (HLA-A*3301 (human)) of 0.01, a binding affinity ratio (IC50 of standard peptide / IC50 of test peptide) (HLA-A*6801 (human)) of 0.0056 and a relative binding ratio (IC50 of standard peptide / IC50 of test peptide) (ratio to standard peptide) (HLA-A*0301 (human) [5]) of 0.0012.

CLDCKWGVLI (modifications not checked) [HPV45 E1 peptide … (position 259, 10 amino acids)] was tested, and the relative binding ratio (IC50 of standard peptide / IC50 of test peptide) [6] was 0.0002.

For ELRHYSDSVY (modifications not checked) [HPV18 E6 77 peptide …], the relative binding ratio (IC50 of the standard peptide / IC50 of the test peptide) (ratio to standard peptide) (HLA-A*0101 (human) [7]) was 0.0037.

For QVLHVLKRK (modifications not checked) [HPV18 E1 peptide … (position 80, 9 amino acids)], the relative binding ratio (IC50 of standard peptide / IC50 of test peptide) (HLA-A*1101 (human) [8]) was 0.002.

With AFRDLCIVY (modifications not checked) [HPV16 E6 peptide … (position 53, 9 amino acids; SEQ ID NO: 40120)] the relative binding ratio (IC50 of standard peptide / IC50 of test peptide) (HLA-A*1101 (human) [9]) was 0.0001.

KISEYRHYCY (modifications not checked) [HPV16 E6 79 …] showed a binding affinity ratio (IC50 of standard peptide / IC50 of test peptide) (HLA-A*0101 (human) [10]) of 0.009.

Work on YNIVTFCCK (modifications not checked) [HPV16 E7 position 52 9-mer peptide … (SEQ ID NO: 40241)] yielded a relative binding ratio (IC50 of standard peptide / IC50 of test peptide) (HLA-A*1101 (human) [11]) of 0.0022.

Work on EGTGCNGWFY (modifications not checked) [HPV31 E1 position 10 peptide … (SEQ ID NO: 41699)] yielded a binding affinity ratio (relative to the standard peptide) (HLA-A*1101 (human) [12]) of 0.0002.

PLCPEEKQR (modifications not checked) [HPV31 E6 peptide … (position 109, 9 amino acids)] gave a relative binding ratio (IC50 of standard peptide / IC50 of test peptide) (ratio to standard peptide) (HLA-A*1101 (human) [13]) of 0.0005 and a relative binding ratio (IC50 of standard peptide / IC50 of test peptide) (ratio to standard peptide) (HLA-A*0301 (human) [14]) of 0.0002.

TMLCMCCK (modifications not checked) [HPV18 E7 60-67 peptide TMLCMCCK (SEQ ID NO: 41224)] was tested, and the binding affinity ratio (IC50 of standard peptide / IC50 of test peptide) (ratio relative to standard peptide) (HLA-A*1101 (human) [15]) was 0.024.

Binder LCPEEKQRH (modifications not checked) [HPV31 E6 peptide … (position 110, 9 amino acids)] has a relative binding ratio (IC50 of standard peptide / IC50 of test peptide) (ratio to standard peptide) (HLA-A*1101 (human) [13]) of 0.0001 and a relative binding ratio (IC50 of standard peptide / IC50 of test peptide) (ratio to standard peptide) (HLA-A*0301 (human) [14]) of 0.0003.

For YVQAIVDKK (modifications not checked) [HPV18 E1 peptide … (position 19, 9 amino acids)], the relative binding ratio (IC50 of standard peptide / IC50 of test peptide) (ratio to standard peptide) (HLA-A*0301 (human) [16]) was 0.0005, the relative binding ratio (IC50 of standard peptide / IC50 of test peptide) (ratio to standard peptide) (HLA-A*1101 (human) [17]) was 0.029 and the relative binding ratio (IC50 of standard peptide / IC50 of test peptide) (HLA-A*1101 (human) [1]) was 0.029. For the same binder, the binding affinity ratio (IC50 of the standard peptide / IC50 of the test peptide) (HLA-A*0301 (human) [2]) was 0.0005.

With ISEYRHYCY (modifications not checked) [HPV16 E6 80 …] the binding affinity ratio (IC50 of standard peptide / IC50 of test peptide) (HLA-A*0101 (human) [10]; remark: other sources report otherwise) was 0.31.

LLITSNINA (modifications not checked) [HPV31 E1 peptide … (position 542, 9 amino acids)] showed a relative binding ratio (IC50 of standard peptide / IC50 of test peptide) [18] of 0.0022.

Binder LILALLRYK (modifications not checked) [HPV45 E1 267-275 peptide … (SEQ ID NO: 37427)] has a relative binding ratio (IC50 of the standard peptide / IC50 of the test peptide) (HLA-A*0301 (human) [19]) of 0.27.

AIFGVNPTI (modifications not checked) [HPV18 E1 246 peptide … (SEQ ID NO: 3274)] showed a relative binding ratio (IC50 of standard peptide / IC50 of test peptide) (ratio to standard peptide) (HLA-A*0201 (human) [20]) of 0.0021.

Binder SLACSWGMV (modifications not checked) [HPV31 E1 peptide … (position 246, 9 amino acids)] has a relative binding ratio (IC50 of standard peptide / IC50 of test peptide) [21] of 0.082.

For SPRLQEISL (modifications not checked) [HPV45 E1 110 … (B07 supermotif peptide, 9 amino acids)], the binding affinity ratio (IC50 of standard peptide / IC50 of test peptide) (HLA-B*0702 (human)) was 0.62, the binding affinity ratio (IC50 of standard peptide / IC50 of test peptide) (HLA-B*3501 (human)) was 0.0008 and the binding affinity ratio (IC50 of standard peptide / IC50 of test peptide) (HLA-B*5101 (human)) was 0.0005. For the same binder, the binding affinity ratio (IC50 of standard peptide / IC50 of test peptide) (HLA-B*5301 (human)) was 0.0002.

GDTPEWIQR (modifications not checked) [HPV45 E1 peptide … (position 327, 9 amino acids)] gave a relative binding ratio (IC50 of standard peptide / IC50 of test peptide) (HLA-A*0301 (human) [22]) of 0.0008.

GVLILALLR (modifications not checked) [HPV45 E1 peptide … (position 265, 9 amino acids)] was tested, and the relative binding ratio (IC50 of standard peptide / IC50 of test peptide) (HLA-A*0301 (human) [22]) was 0.0058.

LLTTNIHPA (modifications not checked) [HPV18 E1 peptide … (position 570, 9 amino acids)] was tested, and the relative binding ratio (IC50 of standard peptide / IC50 of test peptide) (HLA-A*0201 (human) [23]) was 0.18.

Work on WLQPLADAK (modifications not checked) [HPV16 E1 peptide … (position 509, 9 amino acids)] yielded a binding affinity ratio (relative to standard peptide) (HLA-A*0301 (human) [24]) of 0.0005, a binding affinity ratio (relative to standard peptide) (HLA-A*1101 (human) [25]) of 0.0002 and a relative binding ratio (IC50 of standard peptide / IC50 of test peptide) (HLA-A*0301 (human) [26]) of 0.0005. For the same binder, the relative binding ratio (A*1101) (HLA-A*1101 (human) [27]) was 0.0002.

VVLLLVRYK (modifications not checked) [HPV16 E1 peptide … (position 274, 9 amino acids)] gave a binding affinity ratio (relative to standard peptide) (HLA-A*0301 (human) [24]) of 1, a binding affinity ratio (relative to standard peptide) (HLA-A*1101 (human) [25]) of 0.36 and a relative binding ratio (IC50 of standard peptide / IC50 of test peptide) (HLA-A*0301 (human) [26]) of 1. The relative binding ratio (A*1101) (HLA-A*1101 (human) [27]) was 0.36.

Binder MVQWAYDNDI (modifications not checked) [HPV16 E1 360 peptide …] has a binding affinity ratio (IC50 of the standard peptide / IC50 of the test peptide) [28] of 0.0001.
